± gives the uncertainty stated by the source.
B1: Tripartite motif-containing protein 44, residues 174 to 218; numbered along this chain, Q96DX7 (parent)
chain: VAKRKCPDHGLDLSTYCQEDRQLICVLCPVIGAHQGHQLSTLDEA

Variants of: B1
Assay: abundance fitness (aPCA) (normalised: wild type 0, dead -1); higher = more abundant; growth selection in yeast, the domain comes from the species named
Settings: Homo sapiens

Variant | abundance fitness
Y16P | -0.379 ± 0.038
Y16K | -0.059 ± 0.037
Y16G | -0.373 ± 0.027
Y16Q | -0.029 ± 0.035
Y16H | -0.053 ± 0.041
Y16R | -0.043 ± 0.028
Y16S | -0.16 ± 0.031
Y16L | -0.054 ± 0.031
Y16D | -0.276 ± 0.037
Y16T | 0.029 ± 0.036
C6T | -0.783 ± 0.072
C6V | -1.07 ± 0.067
C6A | -1.05 ± 0.064
C6D | -0.701 ± 0.076
C6R | -0.999 ± 0.04
C6K | -0.874 ± 0.073
C6M | -1.04 ± 0.12
C6P | -1.07 ± 0.17
C6H | -1.1 ± 0.11
C6N | -0.889 ± 0.11
C6Q | -0.889 ± 0.068
C6E | -0.946 ± 0.087
C6Y | -0.92 ± 0.095
C6W | -1.06 ± 0.069

Variant | abundance fitness
R21K | 0.063 ± 0.037
R21P | -0.691 ± 0.046
R21N | 0.047 ± 0.039
R21D | 0.071 ± 0.035
R21Y | 0.001 ± 0.095
R21M | -0.016 ± 0.034
R21T | -0.037 ± 0.033
R21H | 0.029 ± 0.044
R21A | 0 ± 0.027
R21G | 0.025 ± 0.025
R21E | 0.043 ± 0.029
R21S | 0.068 ± 0.03
R21C | 0.009 ± 0.032
R21W | -0.24 ± 0.03
R21V | -0.205 ± 0.029
S14R | -0.098 ± 0.027
S14E | 0.033 ± 0.028
S14I | 0.023 ± 0.058
S14M | -0.049 ± 0.032
S14W | -0.155 ± 0.03
S14D | 0.006 ± 0.037
S14Q | -0.001 ± 0.034
S14K | 0.014 ± 0.03
S14H | -0.014 ± 0.05

Variant | abundance fitness
S14V | 0.011 ± 0.028
S14G | 0.019 ± 0.026
S14F | -0.074 ± 0.044
S14P | -0.688 ± 0.063
S14L | -0.031 ± 0.028
S14A | -0.001 ± 0.027
S14N | 0.094 ± 0.06
S14T | 0.01 ± 0.034
L11G | -0.169 ± 0.026
L11Q | -0.024 ± 0.03
L11M | -0.05 ± 0.12
L11K | 0.016 ± 0.097
L11H | 0.033 ± 0.05
L11D | -0.198 ± 0.047
L11C | -0.009 ± 0.031
L11S | -0.189 ± 0.034
L11V | -0.183 ± 0.028
L11T | -0.147 ± 0.17
L11Y | -0.031 ± 0.04
L11R | 0 ± 0.028
L11F | -0.083 ± 0.039
L11E | 0.005 ± 0.032
L11W | -0.214 ± 0.028
L11P | -0.778 ± 0.084

Variant | abundance fitness
L23D | 0.081 ± 0.039
L23T | -0.001 ± 0.032
L23V | -0.048 ± 0.027
L23I | -0.161 ± 0.075
L23N | -0.09 ± 0.056
L23K | -0.041 ± 0.04
L23W | 0.001 ± 0.027
L23S | 0.014 ± 0.028
L23M | -0.004 ± 0.036
L23C | -0.116 ± 0.035
L23E | 0.066 ± 0.03
L23G | -0.001 ± 0.025
L23F | -0.163 ± 0.049
L23Q | 0.058 ± 0.031
D20T | -0.217 ± 0.037
D20H | -0.141 ± 0.047
D20L | -0.656 ± 0.038
D20S | -0.138 ± 0.032
D20R | -0.072 ± 0.026
D20C | -0.045 ± 0.045
D20N | -0.419 ± 0.056
D20A | -0.585 ± 0.034
D20M | -0.685 ± 0.051
D20P | -0.896 ± 0.079

Variant | abundance fitness
D20G | -0.487 ± 0.026
D20F | -0.914 ± 0.14
D20K | -0.3 ± 0.036
D20E | -0.033 ± 0.029
D20V | -0.642 ± 0.032
D20Y | -0.57 ± 0.1
D20Q | -0.377 ± 0.047
C17I | -0.759 ± 0.091
C17D | -0.631 ± 0.064
C17F | -0.334 ± 0.16
C17V | -0.753 ± 0.036
C17E | -0.546 ± 0.035
C17P | -0.751 ± 0.056
C17W | -0.931 ± 0.045
C17S | -0.562 ± 0.038
C17G | -0.557 ± 0.027
C17L | -0.982 ± 0.059
C17H | -0.818 ± 0.098
C17A | -0.641 ± 0.031
C17T | -0.705 ± 0.047
C17Q | -0.633 ± 0.045
C17Y | -0.767 ± 0.094
C17M | -0.779 ± 0.067
C17N | -0.701 ± 0.15

Variant | abundance fitness
C17R | -0.484 ± 0.029
C17K | -0.657 ± 0.052
D8L | 0.048 ± 0.031
D8S | -0.03 ± 0.031
D8E | 0.044 ± 0.029
D8H | 0.038 ± 0.058
D8K | 0.047 ± 0.047
D8Y | 0.049 ± 0.051
D8C | -0.103 ± 0.035
D8W | -0.105 ± 0.032
D8T | 0.051 ± 0.032
D8A | 0.016 ± 0.029
D8P | -0.827 ± 0.063
D8N | -0.045 ± 0.058
D8Q | 0.028 ± 0.044
D8I | 0.029 ± 0.042
D8F | -0.034 ± 0.041
D8M | 0.057 ± 0.034
K5Q | -0.163 ± 0.032
K5V | -0.135 ± 0.028
K5T | -0.115 ± 0.031
K5S | -0.125 ± 0.031
K5R | -0.159 ± 0.027
K5Y | -0.221 ± 0.06

Variant | abundance fitness
K5W | -0.308 ± 0.03
C25F | -0.926 ± 0.12
C25D | -0.662 ± 0.072
C25G | -0.774 ± 0.031
C25E | -0.717 ± 0.041
Q22D | -0.014 ± 0.036
Q22V | -0.039 ± 0.027
Q22T | 0.06 ± 0.037
Q22L | -0.074 ± 0.03
Q22W | -0.552 ± 0.032
Q22C | 0.042 ± 0.048
Q22M | 0.004 ± 0.035
Q22F | -0.281 ± 0.048
Q22K | 0.027 ± 0.037
Q22P | -0.726 ± 0.096
Q22E | 0.072 ± 0.029
Q22S | 0.007 ± 0.033
Q22Y | 0.02 ± 0.079
Q22H | -0.044 ± 0.04
Q22I | -0.094 ± 0.07
Q22R | -0.001 ± 0.026
Q22A | -0.019 ± 0.027
Q22G | -0.109 ± 0.025

Reference: the Human Domainome abundance scans (Beltran et al. 2025)
